In US20160116468A1:

Tests used:
[1] = molecular target: endogenous EGFR expressed in COS7 cells; experiment: diffusion coefficient of endogenous EGFR after against before cetuximab, COS7 cells
[2] = molecular target: endogenous EGFR expressed in COS7 cells; experiment: diffusion coefficient change of endogenous EGFR (labelled Fab probe), COS7 cells
[3] = molecular target: endogenous EGFR expressed in COS7 cells; experiment: diffusion coefficient change of endogenous EGFR (Alexa Fluor 647 Fab of mAb 199.12 as probe) in a COS7 cell, 20 µg/ml cetuximab

cetuximab (antibody)
Dc2 value as percent of Dc1 value [1]: 60% | change in diffusion coefficient (%) [2]: 40% | change in diffusion coefficient (%) [3]: 40%
